Measurements from the DeepSol protein solubility set.

assay: soluble on expression in E. coli; label from the status in PepcDB or PDB records

**Q.** For “MTDTRASAHLYPAHDLAVCTDAGSAVERITAIYDRSAQAIRARFHAFARGEALDDDTPACYPYLGITVDPKTLVSDARPSWGTVAYPGVYGTTLTRPDLFREYYRVQIERLLHYHNSPVVVGVSNRPIPLPFVVEASTIDITPEQARALGGAFPLPDLAQIDDAIANGTYRPADNEPQPLSMFTAERVDLALQRLYHYTATHPKHFQRFVLFTNYQRYVDEFAALGRKLMEEGNDEGYVRFVEPGDTVHELGTPAPDDSHRIKGLPQMPAYHLVREDRLGVTLVNIGVGPSNAKTITDHLAVLRPHCWMMIGHCGGLRRSQQLGDYVLAHAYVRDDHVLDQDLPPWVPVPPIAEIQVALQEAVARITGLSGSDMKSRMRTGTVVSTDDRNWELKYQALYTRFNQSRAIAIDMESATIAANGFRLRVPYGTLLCVSDKPLHGELKLRGMANLFYRQRVSQHLAIGMEAVRLLRENGVETLHSRKLRSFDEPAFR”, which “soluble on expression in E. coli” value is on record?
**A.** soluble

**Q.** Which “soluble on expression in E. coli” value does the source give for “MQPIEFLEGGCLCGAIRYRIEGNPFDADYCHCRMCQKSIGAAFGAWMDFNVSQVTWLKGNVTEFASSDFVRRGFCAQCGCSLTYRHTEYPDYLTLTIASFDDPNLVQPNYHIYTEQQLSWLKIEDNCQRYPQARTK” here?
**A.** soluble

**Q.** With “MAAHSIFTTTSTTNSFLYPISSSSSSPNINSSFLGVSLNVNAKFGQSLTLYAVTTPKPLTVFAATKKAVAVLKGNSNVEGVVTLSQDDDGPTTVNVRITGLAPGLHGFHLHEYGDTTNGCMSTGAHFNPNKLTHGAPGDEIRHAGDLGNIVANADGVAEVTLVDNQIPLTGPNSVVGRALVVHELEDDLGKGGHELSLTTGNAGGRLACGVVGLTPI” as the sequence, how does the “soluble on expression in E. coli” value read?
**A.** soluble

**Q.** For “MHNIYFYKDKNGNEPVFDYMRELTSKKGKDSRIKLNKINDYIELLSQHGTRAGEPYIKHLDAEIWELRPLRDRILFVAWMDGSFVLLHHFMKRTQKTPKREIEQAKRELADLKERGLDNEK”, which “soluble on expression in E. coli” value is on record?
**A.** not soluble

**Q.** With “MEQFINPRVKDIQISGIRQFSNMIQNYDNLISLTIGQSDFPTPSLVKEAAKRAITENYTSYTHNAGLLELRKAACNFVKDNYDLHYSPETETIVTIGASEAIDVAFRTILEPGTEVILPAPIYPGYEPIIRLCGATPIFIDVRETGFRLTAEALENAITEKTRCVVLPYPSNPTGVTLSKKELQDIADVLKDKNIFVLSDEIYSELVYEQTHTSIAHFPEMREKTIVINGLSKSHSMTGWRIGLLFAPSYLAGHILKVHQYNVTCATSIAQYAAIEALTAAKDAPKMMRHQYKKRRDYVYNRLIQMGLTVEKPTGAFYLFPYVGHLTSSSFDFALDLVKEAGLAVVPGTAFSEYGEGYLRLSYAYSIETLKEGCDRLEAFLQQKAKS” as the sequence, how does the “soluble on expression in E. coli” value read?
**A.** not soluble

**Q.** For “MVFFTCNACGESVKKIQVEKHVSNCRNCECLSCIDCGKDFWGDDYKSHVKCISEGQKYGGKGYEAK”, which “soluble on expression in E. coli” value is on record?
**A.** soluble

**Q.** Which “soluble on expression in E. coli” value does the source give for “TSTDWKEAKSFLKGLSDKQREEHYFCKDFVRLKKIPTWKEMAKGVAVKVEEPRYKKDKQLNEKISLLRSDITKLEVDAIVNAANSSLLGGGGVDGCIHRAAGPLLTDECRTLQSCKTGKAKITGGYRLPAKYVIHTVGPIAYGEPSASQAAELRSCYLSSLDLLLEHRLRSVAFPCISTGVFGYPCEAAAEIVLATLREWLEQHKDKVDRLIICVFLEKDEDIYRSRLPHYFPVA” here?
**A.** soluble

**Q.** For “MSSTMKDTQEAPVRWSRNWTPDAIRALVDQDNGKLDARIYADQDLYQLELERVFGRSWLMLGHETHIPKIGDYLTTYMGEDPVIMVRQKDQSIKVFLNQCRHRGMRIVRSDGGNAKAFTCTYHGWAYDIAGNLVNVPFEKEAFCDKKEGDCGFDKADWGPLQARVETYKGLVFANWDPEAPDLKTYLSDAMPYMDVMLDRTEAGTEAIGGIQKWVIPCNWKFAAEQFCSDMYHAGTMSHLSGVLAGLPPEMDLTQIQLSKNGNQFRSAWGGHGAGWFINDSSILLSVVGPKITQYWTQGPAAEKAARRVPQLPILDMFGQHMTVFPTCSFLPGINTIRTWHPRGPNEVEVWAFVLVDADAPEDIKEEFRLQNIRTFNAGGVFEQDDGENWVEIQRVMRGHKAKSTSLCAKMGLNVPNKNNPAYPGKTAYVYAEEAARGMYHHWSRMMSEPSWDTLKP”, which “soluble on expression in E. coli” value is on record?
**A.** soluble

**Q.** For “MSLKILVYGINYSPELTGIGKYTGEMVAWMAQEGHEVRVITAPPYYPQWKVGERYSAWRYRWEEGEATVWRCPLYVPKQPSTLKRLLHLGSFALSSFFPLMAQRRWKPDRIIGVVPTLFCTPGMRLLATLSGARTVLHIQDYEVDAMLGLGMAGKGKRGSVARLATAFERSALRNVDNVSTISRSMMNKAREKGVAAEKILFFPNWSEVARFQDVNDADVTALRQQLGLPEGKKIVLYSGNIGEKQGLEKVIDAAERLRDRPLIFAIVGQGGGKARMENMARERGLANIKFLPLQPYDALPALLKMGDCHLVVQKRGAADAVLPSKLTNILAVGGNAVITAEPHTELGQLCARYPGIAVCVEPESTDALVDGISQALAMPKNNMTAREYAERTLNKENVLRQFIADIRGEGHHHHHH”, which “soluble on expression in E. coli” value is on record?
**A.** soluble

**Q.** Which “soluble on expression in E. coli” value does the source give for “MSLDKVTLLLNWYVYGEHAPFFYGKAKGLYAAEGIDLDIQEGRGSAVTIQAVAAGTVQFGYADVPTMIRAAAKGAPVVAVGVALQKSPMSVMGFSDKNIRKPEDIKGKIVATTPGDSMSQIWPLFLKQAGLRASDFQVVSGDAQTKLNAVANGRADLLLGYVMDQSMKLKDATGKDVRPIMFADYGIHMVSSGIITNKDLLKSNPDLVRRFMKATTAAFIGAEKDPGAAVDALLADLPKAGKRETLLEGFALTTPLYHTDETKGRPPFQVTDADMTSTVDLLIEYGGLEASAKDNTKSFYTRDYLPAAGNEGHHHHHH” here?
**A.** soluble

**Q.** For “MGSDKIHHHHHHMDHLPPLRLLVTFEAISRHGSMRDAAQRLNVTQPAVSQALKALEDHVGVALFDRSVRPARLTDAGEMLSRAVREGLGRIAATLEDIRALHAIGERQVTVSCTLGMATYWLMPKLPMFYADYPELTVNVQAPATDLPVLSPGIDVALRYGRGGWREGRTEKLFAEVICPVGAPALVERLLAEGATLAEAPLIHVRNPHNDHWAGWEDYLQARGIQRPRGGGQIFNNYVQAAQAIYDGRGLMLGWRSITGQAERDGALRAWPDGALDLGTSYFVTMPTTPSQDTLLFVDWVRKAAATV”, which “soluble on expression in E. coli” value is on record?
**A.** not soluble

**Q.** For “MAHHHHHHMPSMTSLLHKSLVVCFTSRISIFTSRPARGTAASAQLSLSSVPTAEHLECWTRQGDCVVGREEVACASCLGGYLAAGTISGLVLLYFCGAAESLVKELVRFNVGYGVTGMQLLPNDTLLVVTSVGDVWRWPLCDLLRNADASGAEGEKDEATEAEPTAAAHQPPLPLAAPRVPAAPSPQDKTLHTEPRVPATPEEVSYTQEGDTEDRSFSAHDTSTLAHTPQREREATARVEEIVTAVRVGADVPLVGARSDAEEQGTPSVHLSTASASLRALSASSENDGDEDHPDERGNDNTDMDARRAEPATVSCLPPPPPLASPTVSDKFEEKRGVGGVTRCATEFQRRTLYDPEQSTEEPGVVDMGVPSSAAGNSADLSHDGLRIAVSPPSTADNTAHHDAVLEDSGADVPEVAARGSAAGAAAVAAKEGTISDKHIQPFQRNHGDLSDTADVAQGTAHSSPGITSRQGTGMKAAVDDLEHEFAHAMKRLLGPTVGVEGLRKDRRMNPRKVAGVLANLTNQQAAAAGAKGLSYEAPSQPRALEGPNSTKLLEEKRTTLEAAVFDFEAYRQAHRLEVDALQYHHPVPAPTYTLQDRVFDAVESAGRLCDKEAGRATGAAGNAAATLPAAPEDELRDVTYGKVKWTLDPQIAEERRRGGPEMAQHHCDHLIFSTPYPAKATVLFAEEAPLMPSTAWEEVLLLPLPLPPAPSVF”, which “soluble on expression in E. coli” value is on record?
**A.** soluble

**Q.** For “MGKGDPKKPRGKMSSYAFFVQTCREEHKKKHPDASVNFSEFSKKCSERWKTMSAKEKGKFEDMAKADKARYEREMKTYIPPKGETKKKFKDPNAPKRPPSAFFLFCSEYRPKIKGEHPGLSIGDVAKKLGEMWNNTAADDKQPYEKKAAKLKEKYEKDIAAYRAKGKPDAAKKGVVKAEKSKKKKEEEEDEEDEEDEEEEEDEEDEDEEEDDDDE”, which “soluble on expression in E. coli” value is on record?
**A.** soluble

**Q.** With “SLTNITQCKNRRCGGELGDFTGYIESPNYPGNYPANTECTWTINPPPKRRILIVVPEIFLPIEDDCGDYLVMRKTSSSNSVTTYETCQTYERPIAFTSRSKKLWIQFKSNEGNSARGFQVPYVTYDEDYQELIEDIVRDGRLYASENHQEILKDKKLIKALFDVLAHPQNYFKYTAQESREMFPRSFIRLLRSKVSRFLRPYK” as the sequence, how does the “soluble on expression in E. coli” value read?
**A.** soluble

**Q.** For “MLNVGDSVQIAGCSTKKRLLETSSGCDSFDTLIGGALVNSSIVLIDEYRSRCYGSYLIRSFLAEGLHHGHRCFIADPTEDPKEINLIPSRRTSTDMQNQEIPNSLPAENENSMKIAWRYGNVKQVSSSLGPLSNENQYDFTKHVENPNVDVYAEKVFTLKGIYETLCQIVKENEAHTKSGGRGGPKKNLLRVVLKNIDMEICEDYKFLGRFLCCLRSLARSSYMIVYITANSFRVPKPTWRILESAADTHIQLMPFDENEKKMFKHLGTAHGYFHLKSLPRLMSVGTHTPPILDLIFEASSRKGFQIRVMHLPPAFDEPAPGHQNTPSCQNIDF”, which “soluble on expression in E. coli” value is on record?
**A.** soluble

**Q.** With “KFWRRWAGQSQYKGRWREMVTRSALALKLLTSRKHGGIVAAATFGLPETEAGERNWDYRYTWIRDASFTVYAFMRLGYTDEANAFMGWVRGRLDDCCEQTEKLGILYALDGHAELPEEHLDHLTGYGGAQPVRIGNEAYKQVQLDIYGELMDAVYLANKYGDAISHDGWQHVVRQVDYVCEHWNDRDVGIWEMRGGDQHFLHSRLMCWVALDRALRLAFKRSLSGPFERWNKVREDIQNDIWDNFWNEELGHFVQYKGSRNLDASMLLMPLVRFVGANDPKWLATLDAIEAALVRDGMVFRYRNDDDHDDGLAGEEGAFVACSFWYVECLARAGRVEQAHLEFEQLLRYANPLGLYAEEFDGHARHLGNTPQALSHLALISAASFLDRKLSGEQALWQP” as the sequence, how does the “soluble on expression in E. coli” value read?
**A.** not soluble

**Q.** Which “soluble on expression in E. coli” value does the source give for “MSLAHKAKLKIIPLGGLNEIGKNMTVFEYGNDIIVVDCGLAFPDDEMLGIDLVIPDITYLLKNREKVKAIVLTHGHEDHIGALPYVLKQLNVPIYGTRLTIGLVEYKLKEHGLLRDSKLITVKPRETVEIGQFKVEFIRTSHSIADSAALAIHTPVGTVFHSGDFKIDFTPIDGEVPDLHRFAQLGEKGVLVMLCDSTNIERPGYTMSERTVGETFDNLFRKAEQRIIVATFASNIHRVQQIINSAQKYGRKVAISGRSMVNVVNVAMELGYLTVPEGLLIDLDEANKLPHNKVVIITTGSQGEPMSALTRMASSEHKKVEIVPGDTVIISASPIPGNERLISRVINQLFKKGANVIYEALADIHVSGHACQEEIKLLHTLIKPKFFIPVHGEYRHLVQHAKLAESLGMPPENIFVVDNGTVLEFTKEGHHHHHH” here?
**A.** soluble

**Q.** With “MIPKKSSFIVTYAFRIKPTSPQDSGSNRMIIVITPTYKRITRLADITRLANTLSQVENLHWIVIEDGESTIPNVQNILERSELLYTYVAHRTASGYPARGWYQRDMALKLIRTNPSQILGEHEGEAVIYFADDDNSYDLRLFEDYIRNVKKLGLWAVGLAGGAAVEAPNVVNKKVTSFNFKWKSKRRFAVDMAGFAINLDYILNSSAVFGTECKRGDGAPETCLLEDLGFDLNDIEPFGYEKEASEIYSSLYSMVFYLQKNNEILVWHTKTSYSGMKVKEAEKFGYFVEP” as the sequence, how does the “soluble on expression in E. coli” value read?
**A.** not soluble

**Q.** For “GMTDTNLVEMRAIERMMFDYSYHLDMNHPEELAALFVEDCEVSYAPNFGATGRDAYKKTLEGIGTFFRGTSHHNSNICIDFVSETEANVRSVVLAIHRYTKERPDGILYGQYFDTVVKVDGQWKFKRRELRTTMTTDYHVRAANPIGRAE”, which “soluble on expression in E. coli” value is on record?
**A.** soluble

**Q.** Which “soluble on expression in E. coli” value does the source give for “MGSDKIHHHHHHATTLLVSCSNQQTQTKAITVSDTTLLSAEEFSQKIKKEPNALILDVRTPEEFSEAHIANATNVNWKDNFASGITEVNKNQPVLVYCLSGGRSASASDYLRKNGYTQVYELQGGLLKWQASNFEVVADTVTAAQDSGMTLQQFEALLVTDKYVLIDFYATWCGPCKMMEPALEDIAATMSDKVIVVRIDVDKNEELSKHFEVESLPTVQIYKNKKLVWEDIGYKTKKQLVSQLK” here?
**A.** not soluble
